Measurements reported in paper PMC5328894, “Characterization of a Bacillus thuringiensis chitinase that binds to cellulose and chitin” (AMB Express, 2017).

Substrate: CC(=O)N[C@H]1[C@H](Oc2ccc([N+](=O)[O-])cc2)O[C@H](CO)[C@@H](O[C@@H]2O[C@H](CO)[C@@H](O)[C@H](O)[C@H]2NC(C)=O)[C@@H]1O
Assay: initial-rate hydrolysis, Michaelis-Menten fit
Type: biochemical, Bacillus thuringiensis
Details: 50 mM MES-NaOH, pH 6.0, 50 °C, 0.05-0.8 mM substrate
From the text: initial-rate hydrolysis, Michaelis-Menten fit on BthChi74

B1: BthChi74 (Bacillus thuringiensis serovar israelensis ATCC 35646) (protein)
chain: MAMRSQKFTLLLLSLLLFLPLFLTNFITPNLALADSPKQSQKIVGYFPSWGVYGRNYQVADIDASKLTHLNYAFADICWKGKHGNPSTHPDNPNKQTWNCKESGVPLQNKEVPNGTLVLGEPWADVTKSYPGSGTTWEDCDKYARCGNFGELKRLKAKYPHLKTIISVGGWTWSNRFSDMAADEKTRKVFAESTVAFLRAYGFDGVDLDWEYPGVETIPGGSYRPEDKQNFTLLLQDVRNALNKAGAEDGKQYLLTIASGASQRYADHTELKKISQILDWINIMTYDFHGGWEATSNHNAALYKDPNDPAANTNFYVDGAIDVYTNEGVPVDKLVLGVPFYGRGWKSCGKENNGQYQPCKPGSDGKLASKGTWDDYSTGDTGVYDYGDLTANYVNKNGFVRYWNDTAKVPYLYNATTGTFISYDDNESMKYKTDYIKTKGLSGAMFWELSGDCRTSPKYSCSGPKLLDTLVKELLGGPINQKDTEPPTNVKNIIVTNKTSSSVQLSWTASTDNVGVTEYEITAGEEKWSATTNSITIKNLKPNTEYTFSVIAKDASGNKSHPTALTVKTDEANTTPPDGNGTATFSVTSNWGSGYNFSIIIKNNGTIPIKNWKLEFDYSGNLTQVWDSKISSKTNNHYVITNAGWNGEIPPGGSITIGGAGTGNPAELLNAVISEN
notes: GH18 catalytic domain + FNIII + CBM2; pET21d(+), E. coli BL21(DE3); vector-derived additions at N- and C-termini, C-terminal His6 designed but probably lost by processing; expected 76 kDa, 74 kDa on SDS-PAGE
In the case of B1, the Km is reported as 159 ± 0.5 µM, the kcat is reported as 1.5 ± 0.02 s⁻¹ and the kcat/Km is reported as 10000 M⁻¹ s⁻¹.
